The assay deals with T1, CXCR4-CFP / CXCR4-YFP (human), P61073.
T1 chain: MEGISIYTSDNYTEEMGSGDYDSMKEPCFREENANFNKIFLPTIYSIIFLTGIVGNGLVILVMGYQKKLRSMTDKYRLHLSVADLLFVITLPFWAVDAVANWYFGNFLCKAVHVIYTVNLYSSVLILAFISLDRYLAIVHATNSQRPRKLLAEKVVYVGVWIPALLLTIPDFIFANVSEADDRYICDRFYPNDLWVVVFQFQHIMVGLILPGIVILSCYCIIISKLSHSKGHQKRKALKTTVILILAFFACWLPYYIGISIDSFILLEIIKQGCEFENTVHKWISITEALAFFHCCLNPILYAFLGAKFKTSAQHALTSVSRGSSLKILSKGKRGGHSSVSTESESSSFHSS
Description: FRET or BRET; FLIM (CFP donor lifetime) in live HEK-293T cells transfected with CXCR4-YFP/CXCR4-CFP or 5HTR2B-YFP/CXCR4-CFP (15 µg : 9 µg); CXCR4-CFP alone as reference; untreated or ChOx (25 U/mL, 2 h, 37 °C); without or with CXCL12 (100 nM, 30 min). Conditions: remark: other sources report otherwise. For orientation: Bioluminescence resonance energy transfer reports proximity on the nanometre scale.

B1: CXCR4-CFP / CXCR4-YFP, P61073 1-352 (receptor)
chain: T1 chain
B1 gave a CFP donor lifetime (CFPτ), ChOx-treated cells (2.03 ns for CXCR4-CFP alone) of 1.82 ns; a CFP donor lifetime (CFPτ), ChOx-treated cells with CXCL12 of 1.75 ns; a CFP donor lifetime (CFPτ), untreated cells (2.03 ns for CXCR4-CFP alone) of 1.7 ns; a CFP donor lifetime (CFPτ), untreated cells with CXCL12 of 1.61 ns.

(Values after article PMC12532918.)
